From publication PMC10914487, “Interaction of human dendritic cell receptor DEC205/CD205 with keratins” (The Journal of Biological Chemistry, 2024)

B1: CysR∼CTLD3-Fc of DEC205 [human] / K10-T10 (residue G481-G490), SUMO fusion [human] (parent complex)
chain 1: SGRAANDPFTIVHGNTGKCIKPVYGWIVADDCDETEDKLWKWVSQHRLFHLHSQKCLGLDITKSVNELRMFSCDSSAMLWWKCEHHSLYGAARYRLALKDGHGTAISNASDVWKKGGSEESLCDQPYHEIYTRDGNSYGRPCEFPFLIDGTWHHDCILDEDHSGPWCATTLNYEYDRKWGICLKPENGCEDNWEKNEQFGSCYQFNTQTALSWKEAYVSCQNQGADLLSINSAAELTYLKEKEGIAKIFWIGLNQLYSARGWEWSDHKPLNFLNWDPDRPSAPTIGGSSCARMDAESGLWQSFSCEAQLPYVCRKPLNNTVELTDVWTYSDTRCDAGWLPNNGFCYLLVNESNSWDKAHAKCKAFSSDLISIHSLADVEVVVTKLHNEDIKEEVWIGLKNINIPTLFQWSDGTEVTLTYWDENEPNVPYNKTPNCVSYLGELGQWKVQSCEEKLKYVCKRKGEKLNDASSDKMCPPDEGWKRHGETCYKIYEDEVPFGTNCNLTITSRFEQEYLNDLMKKYDKSLRKYFWTGLRDVDSCGEYNWATVGGRRRAVTFSNWNFLEPASPGGCVAMSTGKSVGKWEVKDCRSFKALSICKKMS
chain 2: GSSGGGHGGG

Variants of: B1
Test: ELISA; pH 6.0; protein conc 5 µg/ml (highest point of the titration); parent: 3.9; read off a plot

| Variant | response [OD 450] |
| --- | --- |
| chain 2 H7R | ~1.9 |
| chain 2 S3R | ~2.1 |
